# Data taken from US20260085129A1 (ECO ANIMAL HEALTH, published 2026).
# T1: porcine CD163, membrane-bound form on porcine pulmonary alveolar macrophage (pPAM) WT cells (porcine, UniProt Q2VL90 47-1115)
# T1 construct: Native CD163 on primary cells; also called membrane CD163; cell-surface CD163
# T1 sequence: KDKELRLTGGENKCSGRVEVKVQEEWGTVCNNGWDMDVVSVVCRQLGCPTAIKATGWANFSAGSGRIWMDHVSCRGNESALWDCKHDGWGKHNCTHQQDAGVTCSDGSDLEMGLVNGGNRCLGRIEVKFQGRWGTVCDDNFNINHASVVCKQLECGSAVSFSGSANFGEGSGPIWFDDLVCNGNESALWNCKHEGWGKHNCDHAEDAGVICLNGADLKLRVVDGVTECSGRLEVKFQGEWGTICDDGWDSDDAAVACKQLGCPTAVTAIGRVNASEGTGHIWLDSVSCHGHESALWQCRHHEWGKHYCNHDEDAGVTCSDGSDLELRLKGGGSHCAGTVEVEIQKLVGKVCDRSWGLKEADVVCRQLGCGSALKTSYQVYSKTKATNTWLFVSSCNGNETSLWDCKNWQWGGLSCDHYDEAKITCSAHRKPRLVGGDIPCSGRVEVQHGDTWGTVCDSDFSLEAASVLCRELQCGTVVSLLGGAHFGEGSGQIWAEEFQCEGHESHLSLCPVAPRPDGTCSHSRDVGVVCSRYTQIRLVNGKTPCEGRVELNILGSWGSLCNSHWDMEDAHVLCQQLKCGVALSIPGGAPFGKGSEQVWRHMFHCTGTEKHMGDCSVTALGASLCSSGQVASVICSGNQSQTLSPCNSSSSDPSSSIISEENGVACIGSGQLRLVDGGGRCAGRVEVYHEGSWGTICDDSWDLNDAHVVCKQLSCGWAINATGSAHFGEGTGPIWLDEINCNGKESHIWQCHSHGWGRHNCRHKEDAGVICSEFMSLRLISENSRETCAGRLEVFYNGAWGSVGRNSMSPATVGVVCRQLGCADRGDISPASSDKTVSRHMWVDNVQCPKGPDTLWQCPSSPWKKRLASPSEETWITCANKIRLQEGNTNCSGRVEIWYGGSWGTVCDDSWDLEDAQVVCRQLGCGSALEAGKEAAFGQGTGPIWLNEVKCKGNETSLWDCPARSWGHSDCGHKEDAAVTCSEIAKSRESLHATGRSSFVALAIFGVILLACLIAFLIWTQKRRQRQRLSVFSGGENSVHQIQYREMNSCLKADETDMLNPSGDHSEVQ
# T2: porcine CD163 with deletion of SRCR domain 5, on pPAMΔ5 cells (porcine, UniProt Q2VL90 47-1115)
# T2 construct: also called pPAMΔ5 domain cells; pPAMΔ5 WT cells
# T2 sequence: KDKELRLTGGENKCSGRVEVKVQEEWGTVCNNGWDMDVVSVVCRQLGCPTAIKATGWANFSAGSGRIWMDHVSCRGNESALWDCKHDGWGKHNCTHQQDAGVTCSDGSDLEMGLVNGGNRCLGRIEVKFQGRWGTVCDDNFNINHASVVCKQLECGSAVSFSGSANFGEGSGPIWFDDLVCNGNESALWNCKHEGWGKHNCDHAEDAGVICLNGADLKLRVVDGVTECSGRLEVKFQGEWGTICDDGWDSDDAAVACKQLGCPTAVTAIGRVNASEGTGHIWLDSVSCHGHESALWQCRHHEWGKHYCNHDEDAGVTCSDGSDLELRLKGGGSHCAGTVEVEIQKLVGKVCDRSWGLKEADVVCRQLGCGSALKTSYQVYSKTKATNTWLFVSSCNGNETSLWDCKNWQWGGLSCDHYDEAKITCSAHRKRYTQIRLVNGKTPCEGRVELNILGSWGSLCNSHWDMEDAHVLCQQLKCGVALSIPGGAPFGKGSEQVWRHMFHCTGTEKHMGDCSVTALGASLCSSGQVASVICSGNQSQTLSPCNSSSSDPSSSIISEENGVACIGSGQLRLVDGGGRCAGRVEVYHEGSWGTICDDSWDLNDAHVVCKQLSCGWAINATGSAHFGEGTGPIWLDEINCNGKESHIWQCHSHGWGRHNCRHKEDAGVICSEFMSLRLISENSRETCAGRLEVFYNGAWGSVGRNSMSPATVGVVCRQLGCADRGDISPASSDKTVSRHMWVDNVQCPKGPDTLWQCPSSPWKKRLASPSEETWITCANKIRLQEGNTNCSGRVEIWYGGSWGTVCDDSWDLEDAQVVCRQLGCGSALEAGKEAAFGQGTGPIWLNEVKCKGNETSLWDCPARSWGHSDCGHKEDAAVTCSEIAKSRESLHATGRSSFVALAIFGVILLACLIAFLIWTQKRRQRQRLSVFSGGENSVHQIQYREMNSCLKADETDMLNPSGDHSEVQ
# B1: 17B11 + 03D03 + 03E11 2(G4S) triparatopic VHH construct (bispecific antibody)
# chain: QVQLVESGGGLVQAGGSLRLSCAASGRTFSSYAMGWFRQTPGKDREFVARIGWTGGTTIYADSVKGRFTISRDNAKNTVYLQMNSLKPEDTAVYYCAADQAGWRTAGVRNTYEYDYWGQGTQVTVSSGGGGSGGGGSQLQLVESGGGLVQPGGSLRLSCAASGFTLDDYTIGWFRQAPGKEREGVSCINSITSNTYYADSVKGRFTISRDNAKNTVYLQMNSLTAEDTAIYYCAADSGLFSGSSCLKYRAMRFGSWGQGTQVTVSSGGGGSGGGGSQVQLQESGGGLVQVGSSLRLSCVTSGRTPSRYVMGWFRQAPGQEREFVAAISWSGRAPYADSVKGRFTISRDNAKNTVYLQMNSLKPEDTGVYYCAGGEGAIKWTTLDAYDYWGQGTQVTVSS
# notes: Triparatopic; not shown: FLAG and His tags
# B2: 03D03 + 17B11 + 03E11 2(G4S) triparatopic VHH construct (bispecific antibody)
# chain: QLQLVESGGGLVQPGGSLRLSCAASGFTLDDYTIGWFRQAPGKEREGVSCINSITSNTYYADSVKGRFTISRDNAKNTVYLQMNSLTAEDTAIYYCAADSGLFSGSSCLKYRAMRFGSWGQGTQVTVSSGGGGSGGGGSQVQLVESGGGLVQAGGSLRLSCAASGRTFSSYAMGWFRQTPGKDREFVARIGWTGGTTIYADSVKGRFTISRDNAKNTVYLQMNSLKPEDTAVYYCAADQAGWRTAGVRNTYEYDYWGQGTQVTVSSGGGGSGGGGSQVQLQESGGGLVQVGSSLRLSCVTSGRTPSRYVMGWFRQAPGQEREFVAAISWSGRAPYADSVKGRFTISRDNAKNTVYLQMNSLKPEDTGVYYCAGGEGAIKWTTLDAYDYWGQGTQVTVSS
# notes: as for B1
# B3: 03E11 + 03D03 + 17B11 2(G4S) triparatopic VHH construct (bispecific antibody)
# chain: QVQLQESGGGLVQVGSSLRLSCVTSGRTPSRYVMGWFRQAPGQEREFVAAISWSGRAPYADSVKGRFTISRDNAKNTVYLQMNSLKPEDTGVYYCAGGEGAIKWTTLDAYDYWGQGTQVTVSSGGGGSGGGGSQLQLVESGGGLVQPGGSLRLSCAASGFTLDDYTIGWFRQAPGKEREGVSCINSITSNTYYADSVKGRFTISRDNAKNTVYLQMNSLTAEDTAIYYCAADSGLFSGSSCLKYRAMRFGSWGQGTQVTVSSGGGGSGGGGSQVQLVESGGGLVQAGGSLRLSCAASGRTFSSYAMGWFRQTPGKDREFVARIGWTGGTTIYADSVKGRFTISRDNAKNTVYLQMNSLKPEDTAVYYCAADQAGWRTAGVRNTYEYDYWGQGTQVTVSS
# notes: Triparatopic: three anti-porcine CD163 VHHs in one chain; also called Tri-2; Tri2; not shown: FLAG and His tags
# B4: Clone 19-H03E11 VHH antibody (VHH)
# VHH: QVQLQESGGGLVQVGSSLRLSCVTSGRTPSRYVMGWFRQAPGQEREFVAAISWSGRAPYADSVKGRFTISRDNAKNTVYLQMNSLKPEDTGVYYCAGGEGAIKWTTLDAYDYWGQGTQVTVSS
# notes: Tested as periplasmic extract in ELISA and FACS screening; also called VHH 019 (3E11)
# B5: 03D03 + 03E11 + 17B11 2(G4S) triparatopic VHH construct (bispecific antibody)
# chain: QLQLVESGGGLVQPGGSLRLSCAASGFTLDDYTIGWFRQAPGKEREGVSCINSITSNTYYADSVKGRFTISRDNAKNTVYLQMNSLTAEDTAIYYCAADSGLFSGSSCLKYRAMRFGSWGQGTQVTVSSGGGGSGGGGSQVQLQESGGGLVQVGSSLRLSCVTSGRTPSRYVMGWFRQAPGQEREFVAAISWSGRAPYADSVKGRFTISRDNAKNTVYLQMNSLKPEDTGVYYCAGGEGAIKWTTLDAYDYWGQGTQVTVSSGGGGSGGGGSQVQLVESGGGLVQAGGSLRLSCAASGRTFSSYAMGWFRQTPGKDREFVARIGWTGGTTIYADSVKGRFTISRDNAKNTVYLQMNSLKPEDTAVYYCAADQAGWRTAGVRNTYEYDYWGQGTQVTVSS
# notes: as for B1
# B6: 17B11 + 03E11 + 03D03 2(G4S) triparatopic VHH construct (bispecific antibody)
# chain: QVQLVESGGGLVQAGGSLRLSCAASGRTFSSYAMGWFRQTPGKDREFVARIGWTGGTTIYADSVKGRFTISRDNAKNTVYLQMNSLKPEDTAVYYCAADQAGWRTAGVRNTYEYDYWGQGTQVTVSSGGGGSGGGGSQVQLQESGGGLVQVGSSLRLSCVTSGRTPSRYVMGWFRQAPGQEREFVAAISWSGRAPYADSVKGRFTISRDNAKNTVYLQMNSLKPEDTGVYYCAGGEGAIKWTTLDAYDYWGQGTQVTVSSGGGGSGGGGSQLQLVESGGGLVQPGGSLRLSCAASGFTLDDYTIGWFRQAPGKEREGVSCINSITSNTYYADSVKGRFTISRDNAKNTVYLQMNSLTAEDTAIYYCAADSGLFSGSSCLKYRAMRFGSWGQGTQVTVSS
# notes: Triparatopic; also called Tri-10; Triparatopic-10; not shown: FLAG and His tags
# B7: Clone 17-H03D03 VHH antibody (VHH)
# VHH: QLQLVESGGGLVQPGGSLRLSCAASGFTLDDYTIGWFRQAPGKEREGVSCINSITSNTYYADSVKGRFTISRDNAKNTVYLQMNSLTAEDTAIYYCAADSGLFSGSSCLKYRAMRFGSWGQGTQVTVSS
# notes: Tested as periplasmic extract in ELISA and FACS screening; also called VHH 017 (3D03)
# Tests used:
# [1] = biological target: T1, porcine CD163, membrane-bound form on …; assay: dose-response FACS on pPAM WT cells, anti-FLAG-biotin and streptavidin R-PE detection
# Experimental: Biparatopic and triparatopic antibody constructs in PBS (pH7.4) were diluted in a 3-fold serial dilutions from 150 nM down to 0.023 nM in FACS buffer (0.5% FBS, 0.5 mM EDTA in 1×PBS pH7.4). Biparatopic and triparatopic candidates were incubated with anti-FLAG-Biotin (Sigma, Cat. nr. F9291), for 30 min on ice with shaking. This mixture was added to pPAM WT cells and incubated for 60 min on ice with gentle shaking. Cells were washed 3×with 150 μl/well of FACS buffer and incubated with 50 μl/well of the secondary detection reagent Streptavidin R-P.E. conjugate antibody (Invitrogen, Cat. nr. SA10044) for 30 min on ice with shaking and protected from light. Cells were then washed 3× with 150 μl/well of FACS Buffer and resuspended in 50 μl/well of FACS buffer to be measured on a FACS machine (Attune™ N×T), and a total of 10000 cells were acquired per sample.
# [2] = biological target: T1, porcine CD163, membrane-bound form on …; assay: cell-based or functional assay
# [3] = biological target: T1, porcine CD163, membrane-bound form on …; assay: cell-based or functional assay; remark: listed apart in the source
# [4] = biological target: T2, porcine CD163 with deletion of SRCR …; assay: P.E. FACS screening on pPAMΔ5 cells
# [5] = biological target: T1, porcine CD163, membrane-bound form on …; assay: P.E. FACS screening on pPAM WT cells
binder,measurement,setting,value
B1,EC50,[1],8 nM
B2,EC50,[1],13.6 nM
B3,"IC50, PRRSV2 strain MN184 infection assay, 10% FBS",[2],2.13 nM
same,"IC50, PRRSV2 strain NA174 infection assay, high CD163 porcine serum",[2],5.01 nM
same,"IC50, PRRSV2 strain NA174 infection assay, low CD163 porcine serum",[2],4.99 nM
same,"IC50, PRRSV1 LT3 infection assay, high CD163 porcine serum",[3],2.96 nM
same,"IC50, PRRSV1 LT3 infection assay, low CD163 porcine serum",[3],2.81 nM
same,EC50,[1],9.1 nM
B4,binding result,[4],no binding
same,binding result,[5],binds
B5,EC50,[1],3.8 nM
B6,"IC50, PRRSV2 strain MN184 infection assay, 10% FBS",[2],2.84 nM
same,"IC50, PRRSV2 strain NA174 infection assay, high CD163 porcine serum",[2],7.6 nM
same,"IC50, PRRSV2 strain NA174 infection assay, low CD163 porcine serum",[2],3.94 nM
same,"IC50, PRRSV1 LT3 infection assay, high CD163 porcine serum",[3],4.02 nM
same,"IC50, PRRSV1 LT3 infection assay, low CD163 porcine serum",[3],3.41 nM
same,EC50,[1],11.6 nM
B7,binding result,[4],no binding
same,binding result,[5],binds
